Reference: US20120207760A1 (THERACLONE SCIENCES, published 2012)

B1: TCN-553 (5261_C18) (antibody, V domains shown)
VH: QVQVVQSGTEVKKPGSSVKVSCQTSGGRFMSYAITWVRQAPGQGLEWMGGIVPVFGTANYAQKFQGRVTITTDDSTRTAYMELSSLRSEDTAVYYCGFRYGSGYGFDSWGQGTLVTVSS
VL: EIVLTQSPGTLSLSPGERATLSCRASQSVSSSYLAWYQKKPGQAPRLLIYGASTRATGIPDRFTGSGSGTDFTLSISRLEPEDFAVYYCQHFGTSVFTFGGGTKVEIK
B2: TCN-560 (5084_P10) (antibody, V domains shown)
VH: EVQLVESGGGLVQPGGSLRLSCAASGFIFRNYWMSWVRQAPGKGLEWVANIKQDGREKYYVDSLRGRVNISRDNAENSLYLHMNSLRVEDTAVYFCARARMVVVTGDGFDVWGHGTMVTVSS
VL: DIQMTQSPSSLSASVGDRVTITCRASQNIKRYFNWYQQKPGKAPKLLIYAASNLENGVPSRFSGSGSGTDFTLTISSLQPEDFATYYCQQSFSKSWTFGQGTNVDIK
B3: TCN-555 (5246_L16) (antibody, V domains shown)
VH: QVQLVQSGAEVKRPGSSVKVSCTASGGIFRKNAISWVRQAPGQGLEWMGGIIAVFNTANYAQKFQNRVKITADESGNTAYMELSSLTSDDTAVYYCASHPKYFYGSGSYPDFWGQGTLVTVSS
VL: QSALTQPRSVSGSPGQSITISCTGGSSDIGASNSVSWYQQHPGKAPKLVIFDVTERPSGVPHRFSGSKSGNTASLTVSGLQPDDEADYFCCAYGGKYLVVFGGGTKVTVL
B4: TCN-554 (5277_M05) (antibody, V domains shown)
VH: QVQLVQSGADLKKPGASVKVSCKASGYTFTDYYIHWVRQAPGQGLEWMGWINPESGDTKYAQKFQGRVTMTRDTSITTAYMELGRLRSDDTAVYYCARDVSTTWSWFAPWGQGTLVTVSS
VL: DIVMTQSPDSLAVSLGERATINCRSSQSIFHNSNNENYLAWYQQKPGQPPKLLIYWASTRESGVPDRFSGSGSGTDFTLTISSLQAEDVAVYFCQQYYNAPLTFGGGTKVEIK
B5: TCN-540 (5060_F05) (antibody, V domains shown)
VH: QVQLVQSGGGVVQPGRSLRLSCAASGFTFSSYAMHWVRQAPGKGLEWVAIISYDGNDQYYTDSVKGRFTISRDSSKVYLQMHRLRPEDTAVYYCAKEFETSGYFHGSFDYWGQGILVTVSS
VL: QSALTQPASVSGSPGQSITISCTGTSSDVGGYNYVSWYQQHPGKAPKLLIYEVTNWPSGVSNRFSGSKSGNTASLTISGLQAEDEADYYCSSYAGSSTWVFGGGTRVTVL
B6: TCN-553 (5261_C18) (antibody, V domains shown)
VH: B1 VH
VL: B1 VL
B7: TCN-536 (5095_N01) (antibody, V domains shown)
VH: QVQLQQWGAGLLKPSETLSLTCAVYGGSFSVSGYYWSWIRQPPGRGLEWIGEISHGGSTNYNPSLKSRVTISVDTTKNQFSLRLSSVTAADTAVYYCARGTDPDTEVYCRVGNCAAFDYWGQGSLVTVSS
VL: EIILAQSPGTLSLSPGERATLSCRASQFVSTRSLAWYQQRPGQAPRLLIYGASSRATGIPDRFSGSGSGTDFTLTISRLEPEDFAVYYCQHYGYSPRYAFGQGSKVEIK
B8: TCN-537 (3194_D21) (antibody, V domains shown)
VH: QVQLQQWGSGLLKPSETLSLTCAVYGGSFRDDYWTWIRQPPGKGLEWIGEINHSGRTNYNPSLKSRVTISVDTSLKQFSLKVISVTAADTAVYYCARGTSHVSRYFDWLPPTNWFDPWGQGTQVTVSS
VL: DIVLTQSPGTLSLSPGERATLSCRASQSVSSSYLAWYQQKPGQAPRLVMYGAATRATGIPDRFSGSGSGPDFTLTISRLEPEDFAMYYCQQYGNSPITFGQGTRLEIK
B9: TCN-543 (5081_G23) (antibody, V domains shown)
VH: QVHLVQSGAEVRKPGDSVKVSCKTSGYTFSTYPVAWVRQVPGQGLEWMGWISTYNGNTNFAQNFQGRVTLTTDTTTNTAYMEVRSLKFDDTAVYYCARVEGSYRDFWNNQNRFDPWGQGTLVTVSS
VL: SYVLTQPPSVSVAPGQTARISCGGSNIGGKSVHWYQQKPGQAPVLVVYDDSGRPSGIPERFSGSNSGDTATLTISRVEAGDEADYFCQVWDNFGGVFGTGTKVTVL
B10: TCN-551 (5243_D01) (antibody, V domains shown)
VH: EVQLVQSGSEVKKPGESLKISCKGSGYSFSNYWIGWVRHMPGKGLEWMGIIYPGDSDTRYSPSFQGQVTMSADKSSSTVYLQWSSLKASDTAIYYCARRGGHSFGYGSGGDTHSEFDSWGQGTLVTVSS
VL: QSVLTQSPSVSAAPGQKVTISCSGSDSNIGDYFVCWYQHLPGKPPQLLIYENNKRPSGIPDRFSGSKSGTSATLGITGIQTGDEADYYCATWDGSLSAWVFGGGTKLTVL
B11: TCN-534 (5249_B02) (antibody, V domains shown)
VH: QVQLVQSGAEVKKPGSSVKVSCRESGGTFNGYTITWVRQAPGQGLEWMGGIIPMMGTVNYAQKLQGRVTITTDYFTKTAYMDLNNLRSEDTAMYYCVKIRYTGQQLLWGQGTLVTVSS
VL: DIQMTQSPSTLSASIGDRVTITCRASQSIASWLAWYQQKPGKAPKLLIYEAVNLESGVPSRFSGSGSGTDFTLTISSLQPDDFATYFCQHYGTISQTFGGGTKVEIK
B12: TCN-552 (5249_I23) (antibody, V domains shown)
VH: QVQVVQSGAEVKKPGSSVRVSCQASGGTFMNYAIIWVRRAPGQGLEWMGGIIPVFPTPNYAQMFQGRVTISTDESRSTSFLELTNLRYEDTAVYYCARRIYHGGNSGFDFWGQGTLVTVSS
VL: EIVLTQSPATLSLSPGERATLSCRASQSVGNYLAWYQQKPGQAPRLLIYDSSNRAPGIPARFSGSGSGTDFTLTISSLAPEDFAVYYCQQRSKWPPMYSFGHGTKLEIK
B13: TCN-539 (5056_A08) (antibody, V domains shown)
VH: QVQLVESGGGVVQPGRSLRLSCAASEITFITYAMHWVRQAPGKGLEWVALISDDGSNKFYADSVKGRFTISRDNSKNTLYLQMNSLRAEDTAAYYCAREGVYFDSGTYRGYFDYWGQETLVTVSS
VL: EIVLTQSPATLSLSPGERATLSCRASQSVSSYLAWYQQKPGQAPRLLIYDASNRATGIPARFSGSGSGTDFTLTISSLEPEDFAVYYCQQRSHWPPITFGQGTRLEIK
B14: TCN-545 (5082_I15) (antibody, V domains shown)
VH: QVQLQQWGAGLLKPSETLSLSCAVFGGSFSDYYWTWIRQPPGKGLEWIGEIKHSGRTNYNPSLESRVTISVDTSKNQFSLKLSSVTAADTAIYYCARGTDPDTEGYCRSGSCSAFDFWGQGTLVTVSS
VL: EIVLTQSPGTLSLSPGERATLSCRASHFVNYRSLAWYQQTPGQVPRLLIYGASTRATGIPDRFSGSGSGTDFTLTISRLEPEDFAVYFCQQYGGSPRYTFGQGTRLEIK
B15: TCN-544 (5082_A19) (antibody, V domains shown)
VH: QVQLQESGPGLVKPSETLSLTCTVSRGSIGHYFWSWIRQPPGKGLEWIGYISYSGSTKYNPSLRSRVTISVDTSKNQFSLNLNSVTATDTALYYCAREDYDILTGAGPGMEVWGQGTTVTVSS
VL: QSMLTQPPSASGTPGQRVTISCSGSSSNIGSNTVNWFKHLPGTAPKLLIYRNDLRPSGVPDRFSGSKSGTSASLAISGLQSEDEADYYCATWDDSLNGFYVFGTGTKVTVL
B16: TCN-538 (3206_O17) (antibody, V domains shown)
VH: QITLKESGPTLVKPTQTLTLTCVFSGFSLSITGVRVGWIRQPPGKALEWLALISWDDEKHYSPSLQSRLTITKDTSKNQVVLTMTNLDPVDTATYYCARSTDRGHVLRYFGWMLPGDAFDVWGQGTMVTVSS
VL: DIVMTQSPDFLPVSLGERATINCKSSQRVLYSSNNKNYLAWYQLKPGQPPKLIIYWASTRESGVPDRFSGSGSGTEFTLTISSLQAEDVAVYYCQQYYSRPYTFGQGTKLEIK
B17: TCN-550 (5096_F06) (antibody, V domains shown)
VH: QVQLQESGPGLVKPSETLSLTCTVSGASINSHYWSWIRQPPGKGLEWIGYVYYSGSTTYNPSLKSRVTLSVDTSKNQFSLNLSSVTAADTAFYYCARHPYDVLTGSGDWFDPWGQGTLVTVSS
VL: SYVLTQAPSVSVAPGQTARITCGGNAIGSKKVHWYQHKAGQAPVLVVYDDTDRPSGIPERFSGSNSWSTATLTINRVEAGDEADYYCQVWDFTIDHVVFGGGTKLTVL
B18: TCN-554 (5277_M05) (antibody, V domains shown)
VH: B4 VH
VL: B4 VL

These binders were tested against T1, hemagglutinin (HA) of influenza A/Solomon Islands/3/06 H1N1 (Influenza A virus A/Solomon …) (assay: cell-based or functional assay).
For B1, the “% Neutralization” value was 87%. With B2 the “% Neutralization” value was 94%. In the case of B3, the “% Neutralization” value is reported as 48%. In the case of B4, the “% Neutralization” value is reported as 42%.

These binders were tested against hemagglutinin (HA) on live influenza A virus A/Wisconsin/67/05 H3N2 (Influenza A virus A/Wisconsin/67/2005 …) (assay: cell-based or functional assay).
For B5, the “% Neutralization” value was 98%. B6 was tested, and the “% Neutralization” value was 5%. For B7, the “% Neutralization” value was 99.9%. In the case of B8, the “% Neutralization” value is reported as 0%. B9 was tested, and the “% Neutralization” value was 73%. With B10 the “% Neutralization” value was 6%. With B11 the “% Neutralization” value was 0%. With B12 the “% Neutralization” value was 14%. In the case of B13, the “% Neutralization” value is reported as 99%. With B14 the “% Neutralization” value was 99%. B15 was tested, and the “% Neutralization” value was 97%. In the case of B16, the “% Neutralization” value is reported as 0%. B17 was tested, and the “% Neutralization” value was 100%. In the case of B18, the “% Neutralization” value is reported as 100%.

Each binder was assayed against hemagglutinin (HA) on live influenza A virus A/Solomon Islands/3/06 H1N1 (Influenza A virus A/Solomon …) (assay: cell-based or functional assay).
With B5 the “% Neutralization” value was 3%. For B6, the “% Neutralization” value was 44%. With B7 the “% Neutralization” value was 81.6%. B8 was tested, and the “% Neutralization” value was 0%. With B9 the “% Neutralization” value was 98%. With B10 the “% Neutralization” value was 99%. B11 was tested, and the “% Neutralization” value was 65.7%. B12 was tested, and the “% Neutralization” value was 0%. For B14, the “% Neutralization” value was 88%. B16 was tested, and the “% Neutralization” value was 21%.

What follows are binders tested against T1, hemagglutinin (HA) of influenza … (assay: ELISA, inactivated whole virions coated; transfection supernatant set 5).
With B1 the OD450 was 3.56 OD450. In the case of B2, the OD450 is reported as 3.52 OD450. Work on B3 yielded an OD450 of 3.57 OD450. Work on B4 yielded an OD450 of 0.18 OD450.

The binders below were run against hemagglutinin (HA) of influenza A/Japan/305/57 H2N2 (Influenza A virus A/Japan/305/1957 …, UniProt P03451 16-562) in the same assay as above.
Binder B1 has an OD450 of 3.28 OD450. B2 showed an OD450 of 3.55 OD450. In the case of B3, the OD450 is reported as 2.1 OD450. Work on B4 yielded an OD450 of 0.11 OD450.
